Blank lines part the entries; values can stand above or below the binder they belong to.
Assays:
[1] = target: T1, soluble human GPNMB-Fc polypeptide (human, UniProt Q14956 23-498, limits assumed); experiment: FACS, Fab2 enhancing huGPNMB-Fc binding to SVEC4-10 cells
T1 construct: also called huGPNMB-Fc; not shown: Fc domain
T1 sequence (looked up): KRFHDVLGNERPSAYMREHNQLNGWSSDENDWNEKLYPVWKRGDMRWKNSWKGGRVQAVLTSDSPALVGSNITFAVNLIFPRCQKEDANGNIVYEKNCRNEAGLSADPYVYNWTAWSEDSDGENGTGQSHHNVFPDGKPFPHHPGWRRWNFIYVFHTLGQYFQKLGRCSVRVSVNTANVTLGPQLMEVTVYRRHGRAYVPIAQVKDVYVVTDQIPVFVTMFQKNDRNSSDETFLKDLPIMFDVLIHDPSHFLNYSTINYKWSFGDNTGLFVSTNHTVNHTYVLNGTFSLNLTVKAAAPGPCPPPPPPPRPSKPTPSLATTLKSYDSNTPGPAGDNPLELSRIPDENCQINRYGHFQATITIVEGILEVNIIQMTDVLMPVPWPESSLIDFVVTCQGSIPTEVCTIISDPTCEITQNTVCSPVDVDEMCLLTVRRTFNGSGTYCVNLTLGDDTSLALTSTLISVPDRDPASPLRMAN
Protocol: (§1) Purified recombinant Fab2 fragments of select anti-GPNMB antibodies of the present disclosure were produced through transient transfection and purified. Briefly, 2 ug/mL soluble mouse or human GPNMB-Fc diluted in binding buffer was pre-complexed with increasing concentrations of anti-GPNMB Fab2 fragments in 96-well plates. Subsequently, 100,000 SVEC4-10 cells were added per well and incubated on ice for 30 minutes. Soluble moGPNMB-Fc or huGPNMB-Fc bound to cell surface was detected with fluorescent anti-human IgG1 secondary antibody and measured on FACSCanto. IC50 and EC50 values based on changes in MFI values were calculated for each antibody.

[2] = target: T2, soluble mouse GPNMB-Fc polypeptide (Fc of human IgG1 or mouse IgG2A, not specified for the assay) (mouse, UniProt Q99P91 23-502); experiment: FACS, Fab2 blocking moGPNMB-Fc binding to SVEC4-10 cells
T2 construct: extracellular domain; also called moGPNMB-Fc; mGPNMB; not shown: Fc region of human IgG1 or mouse IgG2A; in the Fab2 assay detected with anti-human IgG1 secondary antibody
T2 sequence (looked up): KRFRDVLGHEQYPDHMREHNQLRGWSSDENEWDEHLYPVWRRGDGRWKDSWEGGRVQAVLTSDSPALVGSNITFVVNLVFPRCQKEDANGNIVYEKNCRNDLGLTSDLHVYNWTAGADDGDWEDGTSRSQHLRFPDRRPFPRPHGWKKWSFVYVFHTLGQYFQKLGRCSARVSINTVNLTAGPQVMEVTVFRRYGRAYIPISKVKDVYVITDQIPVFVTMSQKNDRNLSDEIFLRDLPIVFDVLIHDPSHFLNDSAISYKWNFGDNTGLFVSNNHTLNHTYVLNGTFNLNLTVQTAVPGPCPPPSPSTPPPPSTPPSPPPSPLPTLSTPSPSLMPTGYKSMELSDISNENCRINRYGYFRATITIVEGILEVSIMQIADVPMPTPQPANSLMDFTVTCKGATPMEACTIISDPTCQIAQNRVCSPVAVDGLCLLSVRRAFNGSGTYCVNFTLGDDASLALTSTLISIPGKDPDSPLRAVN
Protocol: as §1

[3] = target: T3, soluble human GPNMB (recombinant extracellular domain) (human, UniProt Q14956 23-498); experiment: SPR Carterra, Ab amine-coupled
T3 construct: also called huGPNMB; recombinant human GPNMB extracellular domain; not shown: C-terminal polyhistidine or Avi-His tag
T3 sequence: T1 sequence (looked up)
Protocol: (§2) Additionally, one of the anti-GPNMB antibodies of the present disclosure was evaluated using a Carterra LSA instrument (Carterra, Salt Lake City, UT). Briefly, the anti-GPNMB antibody was immobilized in duplicate spots onto an HC30M sensor chip (Carterra) by amine coupling according to the instrument manufacturer's recommended protocol. After priming with running buffer (see above) the immobilized antibody was tested for its ability to bind to recombinant human, cynomolgus, and mouse GPNMB. Analytes were diluted to 600 nM in running buffer, then further diluted 3-fold serially to 200 nM, 67 nM, 22.2 nM, 7.4 nM, and 2.5 nM. Analyte at each concentration was injected for five minutes over the entire chip using the single channel flow cell. Dissociation was measured for 5 min, followed by regeneration of the chip with two 30-second injections of 10 mM glycine, pH 2.0. The data were analyzed using the NextGenKIT high-throughput kinetics analysis software from Carterra.

[4] = target: T4, soluble mouse GPNMB (recombinant extracellular domain) (mouse, UniProt Q99P91 23-502); experiment: SPR Carterra, Ab amine-coupled
T4 construct: also called moGPNMB; not shown: C-terminal polyhistidine or Avi-His tag
T4 sequence: T2 sequence (looked up)
Protocol: as §2

[5] = target: T5, soluble cynomolgus GPNMB (recombinant extracellular domain) (cynomolgus, UniProt Q14956 23-499 (human entry), limits assumed); experiment: SPR Carterra, Ab amine-coupled
T5 chain: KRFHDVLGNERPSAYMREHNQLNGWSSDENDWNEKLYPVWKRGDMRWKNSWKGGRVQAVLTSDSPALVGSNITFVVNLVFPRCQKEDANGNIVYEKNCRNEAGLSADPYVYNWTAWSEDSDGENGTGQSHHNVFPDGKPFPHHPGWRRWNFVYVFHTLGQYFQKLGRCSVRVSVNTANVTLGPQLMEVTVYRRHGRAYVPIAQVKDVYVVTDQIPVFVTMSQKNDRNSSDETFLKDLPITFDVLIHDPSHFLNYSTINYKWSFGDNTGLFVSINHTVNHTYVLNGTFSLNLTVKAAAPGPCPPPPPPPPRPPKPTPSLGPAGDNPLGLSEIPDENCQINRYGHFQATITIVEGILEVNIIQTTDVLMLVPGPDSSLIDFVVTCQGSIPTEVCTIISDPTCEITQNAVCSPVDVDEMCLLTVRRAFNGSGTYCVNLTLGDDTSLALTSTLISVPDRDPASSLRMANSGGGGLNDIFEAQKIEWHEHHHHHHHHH
Protocol: as §2

[6] = target: T6, soluble mouse GPNMB-Fc polypeptide (mouse IgG2A Fc) (mouse, UniProt Q99P91 23-502); experiment: FACS, enhancing of moGPNMB-Fc binding to SVEC4-10 cells
T6 construct: extracellular domain; bought (R&D System); also called moGPNMB-Fc; mGPNMB-Fc; not shown: Fc region of mouse IgG2A
T6 sequence (looked up): T2 sequence (looked up)
Protocol: Purified full-length anti-GPNMB antibodies of the present disclosure were evaluated for their ability to block binding of moGPNMB-Fc to SVEC4-10 cells to determine the ligand blocking potency of each anti-GPNMB monoclonal antibody. Briefly, 2 μg/mL moGPNMB-Fc (mouse IgG2A Fc) diluted in binding buffer was pre-complexed with increasing concentrations of anti-GPNMB antibody of the present disclosure or human IgG1 isotype control antibody in 96-well plates. Subsequently, 100,000 SVEC4-10 cells were added per well and incubated on ice for 30 minutes. Soluble moGPNMB-Fc bound to cell surface was detected with fluorescent anti-mouse IgG2A secondary antibody and measured on FACSCanto. (FIG. 5A and FIG. 5B) IC50 values (for antibodies that block moGPNMB-Fc cell binding) and EC50 values (for antibodies that enhance moGPNMB-Fc cell binding) based on changes in MFI values were calculated (average+standard error) for each anti-GPNMB antibody and listed in Table 6. In Table 6, NA indicates no activity. […] In all cases, certain anti-GPNMB antibodies of the present disclosure blocked soluble GPNMB binding to cells, while other anti-GPNMB antibodies of the present disclosure enhanced soluble GPNMB binding to cells.

[7] = target: T4, soluble mouse GPNMB (recombinant …); experiment: SPR Carterra, Ab immobilized
Protocol: Binding kinetics of human anti-GPNMB IgG1 antibodies of the present disclosure to human, cynomolgus, and mouse GPNMB were evaluated using a Carterra LSA instrument (Carterra, Salt Lake City, UT). […] A HC200M sensor chip (Carterra) was activated using the single channel flow cell with a 7-minute injection of a 1:1:1 mixture of 100 mM MES pH 5.5, 100 mM sulfo-NHS, 400 mM EDC (all reconstituted in MES pH 5.5; 100 μl of each mixed in vial immediately before running assay). After switching to the multi-channel array flow cell, the antibodies were injected over the activated chip in a 96-spot array for 15 minutes. The remaining unconjugated active groups on the chip were then blocked by injecting 1M Ethanolamine pH 8.5 (Carterra) for 7 minutes using the single channel flow cell.
After priming with running buffer (HBS-EP+, Teknova) with 0.5 mg/ml BSA (Sigma), the immobilized anti-GPNMB antibodies were tested for their ability to bind to several forms of recombinant GPNMB extracellular domain, including human, cynomolgus, and mouse orthologs as described above. Estimates of affinity were generated by injecting each analyte over the entire antibody array using the single channel flow cell. GPNMB analytes were diluted to 2.5, 7.4, 22, 67, 200, and 600 nM in running buffer, and injected in serial from lowest to highest concentration without regeneration. Two buffer blanks were run between each series (one species per series). Data were processed and analyzed using Kinetics high-throughput kinetics analysis software (Carterra).

[8] = target: T7, mouse GPNMB endogenously expressed on B16F10 cells (mouse, UniProt Q99P91 23-574); experiment: FACS titration, B16F10 cells
T7 construct: whole, on cells; also called moGPNMB
T7 sequence (looked up): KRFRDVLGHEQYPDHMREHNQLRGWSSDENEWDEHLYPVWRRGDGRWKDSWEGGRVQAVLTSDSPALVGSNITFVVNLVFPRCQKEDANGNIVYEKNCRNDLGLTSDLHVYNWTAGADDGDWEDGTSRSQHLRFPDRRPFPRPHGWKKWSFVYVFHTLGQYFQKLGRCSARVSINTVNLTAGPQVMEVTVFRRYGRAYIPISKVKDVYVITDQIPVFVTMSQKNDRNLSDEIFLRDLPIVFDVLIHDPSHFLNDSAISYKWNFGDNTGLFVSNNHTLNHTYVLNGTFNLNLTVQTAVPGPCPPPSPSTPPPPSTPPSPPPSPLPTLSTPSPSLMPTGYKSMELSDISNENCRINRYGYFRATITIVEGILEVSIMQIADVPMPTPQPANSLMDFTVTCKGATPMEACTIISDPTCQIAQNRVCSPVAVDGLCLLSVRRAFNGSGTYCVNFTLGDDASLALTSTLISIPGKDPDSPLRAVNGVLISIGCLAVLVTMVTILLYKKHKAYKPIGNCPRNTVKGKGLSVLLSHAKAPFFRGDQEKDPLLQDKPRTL
Protocol: Cell-based binding measurements were also performed to measure the apparent affinities of anti-GPNMB antibodies of the present disclosure to cell-surface expressed GPNMB. Serial dilutions of the monoclonal anti-GPNMB antibodies were added to 100,000 Freestyle293-huGPNMB+ or B16F10 cells and allowed to achieve binding equilibrium at 4° C. After addition of fluorescently labeled secondary antibody and brief washing steps, MFI values as a function of titrated antibody concentration was recorded via FACS analysis. Curves were fit using nonlinear regression analysis with Graphpad Prism 6 software.

[9] = target: T7, mouse GPNMB endogenously expressed on …; experiment: FACS, B16F10 cells
Protocol: Recombinant anti-GPNMB antibodies of the present disclosure were examined for their ability to bind human and/or mouse GPNMB expressed on Freestyle293-huGPNMB+ or B16F10 cells, respectively. B16F10 cells are a murine melanoma cell line from a C57BL/6J mouse that endogenously express high levels of mouse GPNMB. The antibodies were also tested for their ability to bind to a human macrophage cell line (U937 cells) engineered to express human GPNMB. Cells were harvested, plated at 100,000 cells/well in a 96-well round bottom plate, and incubated in 100 μl FACS buffer (PBS containing 2% FBS, 2 mM EDTA) containing anti-GPNMB monoclonal antibodies of the present disclosure for 30 minutes on ice. Cells were then washed and incubated in 100 ul FACS buffer containing 1 μg/ml APC-conjugated anti-human IgG secondary antibody for 30 minutes in ice. Cells were washed twice in cold FACS buffer and acquired on a BD FACS Canto. Data analysis and calculation of MFI values was performed with FlowJo (TreeStar) software version 10.0.7. […]

EC50 [1]: 9.05 nM
IC50 [2]: 1.56 nM
B1: recombinant Fab2 fragment of anti-GPNMB antibody GPN-61 (other)
VH: DVQLQESGPGLVKPSQTVFLTCTVTGISITTGNYRWSWIRQFPGNKLEWIGYIYYSGTITYNPSLTSRTTITRDTPKNQFFLEMSSLTAEDTATYFCARDLRHWYFDVWGTGTTVTVSS
VL: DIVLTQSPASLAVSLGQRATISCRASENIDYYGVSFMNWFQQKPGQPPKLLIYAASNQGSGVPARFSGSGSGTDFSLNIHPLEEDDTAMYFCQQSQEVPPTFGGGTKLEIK
notes: also called GPN-61 Fab2

Kd [3]: 135 nM
koff [3]: 0.0098 s⁻¹
kon [3]: 76000 M⁻¹ s⁻¹
Kd [4]: 12 nM
koff [4]: 0.0019 s⁻¹
kon [4]: 180000 M⁻¹ s⁻¹
Kd [5]: 107 nM
koff [5]: 0.01 s⁻¹
kon [5]: 97000 M⁻¹ s⁻¹
B2: anti-GPNMB antibody GPN-81 (antibody, V domains shown)
VH: QVQLQESGPGLVKPSETLSLTCTVSGISITTGNYRWSWIRQPPGKGLEWIGYIYYSGTITYNPSLKSRVTITRDTSKNQFSLELSSVTAADTAVYYCARDLTHWYFDVWGQGTLVTVSS
VL: DIVMTQSPDSLAVSLGERATINCKSSESVDYYGIGFLNWYQQKPGQPPKLLIYAASTQGSGVPDRFSGSGSGTDFTLTISSLQAEDVAVYYCQQSKEVPPTFGGGTKVEIK
notes: humanized GPN-52

EC50 [6]: 0.79 nM
Kd [7]: < 0.3 nM
koff [7]: < 1e-05 s⁻¹
kon [7]: 40000 M⁻¹ s⁻¹
EC50 [8]: 17.8 nM
MFI fold over background [9]: 20.9 fold
B3: anti-GPNMB antibody GPN-33 (antibody, human IgG1, V domains shown)
VH: EVQLVESGGSLVQPGGSLKLSCVASGYTFSNYWMDWVRQTPGKSLEWIGEINTDGSKTNYAPSIKDRFTISRDNAKSTLYLQMSNVKADDTAIYYCTRGPGAWGQGTSVTVSS
VL: DIVMTQTPLSLSVAIGQSASISCKSSQSLKFSDGKTYLNWVFQSPGQSPKRLIYQVSKLDSGVPDRFSGTGSETDFILKISRVEAEDLGVYYCCQGSYSPWTIGGGTKLELK
notes: chimeric

Source: patent US20250270343A1 (Alector, published 2025)
